Source: patent US20230287088A1 (BIONTECH, published 2023)
Read-outs that look alike come from different tables or passages of the source.

B1: P043.A.00023.E05 (antibody, V domains shown)
VH: QSLEESGGRLVTPGTPLTLTCTVSGFSLSSYAMSWVRQAPGKGLEWIGIISSSGSTYYASWAKGRFTISKTSTTVDLKITSPTTEDTATYFCARDASSRGYYYYYGMDPWGPGTLVTVSS
VL: AIQMTQSPSSLAASVGDTVTITCKASEDIGYGLNWYQQKLGIAPKLLIYGANTLESGVPSRFSGSGSETDYTLTISSVQAEDAGIYYCQQGYSTPLTFGAGTKVEIK
notes: also called 443; protein sample ID 443
B2: P043.A.00017.E04 (antibody, V domains shown)
VH: QSVEESGGRLVTPGTPLTLTCTVSGFSLNNYAMNWVRQAPGKGLEWIGIISSSGNTYYANWAKGRFTISKTSTTVDLKITSPTTEDTATYFCARDSYPGYSPYYGMDPWGPGTLVTVSS
VL: AIQMTQSPSSLAASVGDTVTITCKASEDIAYGLNWYQQKLGITPKLLIYGANTLESGVPSRFSGSGSETHYTLTISSVQAEDAGIYYCQQGYNTPPTFGAGTKVEIK
B3: P043.A.00023.A08 (protein sample ID 446) (antibody, V domains shown)
VH: QSVEESGGRLVTPGTPLTLTCTVSGFSLSKYAMSWVRQAPGKGLEWIGIISSGGSTYYASWAKGRFTISKTSSTTVDLKITSPTTEDTATYFCARAGYPGYSPHYFNIWGPGTLVTVSL
VL: AIQMTQSPSSLAASVGDTVTITCKASEDIGYELNWYQQKLGIAPKLLIYGANTLESGVPSRFTGSGSETDYTLTISSVQAEDAGIYYCQQGYSTPPTFGAGTKVEIK
B4: P043.A.00018.C02 (protein sample ID 450) (antibody, V domains shown)
VH: QSVEESGGRLVTPGTPLTLTCTVSGFSLSSYAMSWVRQAPGKGLEWIGIINSGRSTYYASWAKGRFTISKTSTTVDLKITSPTTEDTATYFCARDATSIGYYRYYGMDPWGPGTLVTVSS
VL: AIQMTQSPSSLAASVGDTVTITCKASEDIGYGLNWYQQKLGIAPKLLIYGANTLESGVPSRFSGSGSETDYTLTISSVQAEDAGIYYCQQGYSTPLTFGAGTKVEIK
B5: P043.A.00024.C11 (protein sample ID 451) (antibody, V domains shown)
VH: QSVEESGGRLVTPGTPLTLTCTVSGFSLSSYAMSWVRQAPGKGLEWIGIISSSGTTYYASWAKGPFTISKTSTTVDLKITSPTTEDTATYFCARGGAGYGYAHYYGMDPWGPGTLVTVSS
VL: AIQMTQSPSSLAASVGDTVTITCKASEDIGYGLNWYQQKLGIAPKLLIYGANTLESGVPSRFSGSGSETDYTLTISSVQAEDAGIYYCQQGYSTPLTFGAGTKVEIK
B6: P043.A.00032.C04 (antibody, V domains shown)
VH: QSLEESGGRLVTPGTPLTLTCTASGFSLSSYWMSWVRQAPGKGLEWIGIIYVSGSTYYASWAKGRFTISKTSTTVDLKMTSLTTEDTATYFCARVDYSTGWPLFNIWGPGTLVTVSL
VL: AQVLTQTASPVSAAVGGTVTINCQSSQSVYDNNWLGWYQQKPGQPPKLLIYGASILASGVPSRFKGSGSGTQFTLTISDLESDDAATYYCQGGCSGNTFVFGGGTEVVVK
notes: also called 452; protein sample ID 452
B7: 461 (bispecific antibody)
heavy chain: QSVEESGGRLVTPGTPLTLTCTVSGFSLSSYAMSWVRQAPGKGLEWIGIINSGRSTYYASWAKGRFTISKTSTTVDLKITSPTTEDTATYFCARDATSIGYYRYYGMDPWGPGTLVTVSSASTKGPSVFPLAPSSKSTSGGTAALGCLVKDYFPEPVTVSWNSGALTSGVHTFPAVLQSSGLYSLSSVVTVPSSSLGTQTYICNVNHKPSNTKVDKRVEPKSCDKTHTCPPCPAPEAAGGPSVFLFPPKPKDTLMISRTPEVTCVVVDVSHEDPEVKFNWYVDGVEVHNAKTKPREEQYNSTYRVVSVLTVLHQDWLNGKEYKCKVSNKALPAPIEKTISKAKGQPREPQVYTLPPSREEMTKNQVSLTCLVKGFYPSDIAVEWESNGQPENNYKTTPPVLDSDGSFFLYSKLTVDKSRWQQGNVFSCSVLHEALHSHYTQKSLSLSPGK
light chain fused to scFv: AIQMTQSPSSLAASVGDTVTITCKASEDIGYGLNWYQQKLGIAPKLLIYGANTLESGVPSRFSGSGSETDYTLTISSVQAEDAGIYYCQQGYSTPLTFGAGTKVEIKRTVAAPSVFIFPPSDEQLKSGTASVVCLLNNFYPREAKVQWKVDNALQSGNSQESVTEQDSKDSTYSLSSTLTLSKADYEKHKVYACEVTHQGLSSPVTKSFNRGECDVPGGSGGGGSGGGGSGGGGSQMQLVQSGTEVKKPGESLKISCKGSGYGFITYWIGWVRQMPGKCLEWMGIIYPGDSETRYSPSFQGQVTISADKSINTAYLQWSSLKASDTAIYYCAGGSGISTPMDVWGQGTTVTVGGGGSGGGGSGGGGSGGGGSDIQLTQSPDSLAVSLGERATINCKSSQSVLYSSINKNYLAWYQQKPGQPPKLLIYWASTRESGVPDRFSGSGSGTDFTLTISSLQAEDVAVYYCQQYYSTPYTFGCGTKVEIK
notes: also called LC of P043.A.00018.C02 with a C-terminal fusion of a scFv of anti-S1 antibody; HC of P043.A.00018.C02 as IgG1-LALA-LS
B8: 462 (bispecific antibody)
heavy chain: QSVEESGGRLVTPGTPLTLTCTVSGFSLSSYAMSWVRQAPGKGLEWIGIISSSGTTYYASWAKGPFTISKTSTTVDLKITSPTTEDTATYFCARGGAGYGYAHYYGMDPWGPGTLVTVSSASTKGPSVFPLAPSSKSTSGGTAALGCLVKDYFPEPVTVSWNSGALTSGVHTFPAVLQSSGLYSLSSVVTVPSSSLGTQTYICNVNHKPSNTKVDKRVEPKSCDKTHTCPPCPAPEAAGGPSVFLFPPKPKDTLMISRTPEVTCVVVDVSHEDPEVKFNWYVDGVEVHNAKTKPREEQYNSTYRVVSVLTVLHQDWLNGKEYKCKVSNKALPAPIEKTISKAKGQPREPQVYTLPPSREEMTKNQVSLTCLVKGFYPSDIAVEWESNGQPENNYKTTPPVLDSDGSFFLYSKLTVDKSRWQQGNVFSCSVLHEALHSHYTQKSLSLSPGK
light chain fused to scFv: AIQMTQSPSSLAASVGDTVTITCKASEDIGYGLNWYQQKLGIAPKLLIYGANTLESGVPSRFSGSGSETDYTLTISSVQAEDAGIYYCQQGYSTPLTFGAGTKVEIKRTVAAPSVFIFPPSDEQLKSGTASVVCLLNNFYPREAKVQWKVDNALQSGNSQESVTEQDSKDSTYSLSSTLTLSKADYEKHKVYACEVTHQGLSSPVTKSFNRGECDVPGGSGGGGSGGGGSGGGGSQMQLVQSGTEVKKPGESLKISCKGSGYGFITYWIGWVRQMPGKCLEWMGIIYPGDSETRYSPSFQGQVTISADKSINTAYLQWSSLKASDTAIYYCAGGSGISTPMDVWGQGTTVTVGGGGSGGGGSGGGGSGGGGSDIQLTQSPDSLAVSLGERATINCKSSQSVLYSSINKNYLAWYQQKPGQPPKLLIYWASTRESGVPDRFSGSGSGTDFTLTISSLQAEDVAVYYCQQYYSTPYTFGCGTKVEIK
notes: also called LC of P043.A.00024.C11 with a C-terminal fusion of a scFv of anti-S1 antibody; HC of P043.A.00024.C11 as IgG1-LALA-LS
B9: P043.A.00036.C07 (antibody, V domains shown)
VH: QSLEESGGDLVKPGASLTLTCTASGFSFSSSYWICWVRQAPGKGLEWIGCIYTGSGSTWYASWAKGRFTISKTSSTTVTLQMTSLTAADTATYFCARGYGSYMYDFWGPGTLVTVSS
VL: DVVMTQTPASVEAAVGGTVTIKCQASQSISTALAWYQQKPGQPPKLLIYSASTLESGVPSRFKGSGSGTEFTLAISDLESADAATYYCQGADGSSSSFGGGTEVVVK
notes: also called 448; protein sample ID 448

Columns and labels:
[1] = molecular target: T1, Mouse-Fc-tagged SARS-CoV2 S1-RBD (Sino Biologicals) recombinant protein (SARS-CoV-2, UniProt P0DTC2 319-541); assay: competition ELISA: blocks S1-RBD-mFc binding to coated ACE-2 ECD
T1 construct: domain: S1-RBD

[2] = molecular target: T2, Human-Fc-tagged SARS-CoV2 S1 recombinant protein (Sino Biologicals) (SARS-CoV-2, UniProt P0DTC2 16-685); assay: ELISA on coated S1-hFc, 3 µg/ml; rabbit antibody in B-cell supernatant
T2 construct: domain: S1; Bought reagent

[3] = molecular target: T2, Human-Fc-tagged SARS-CoV2 S1 …
[4] = molecular target: T1, Mouse-Fc-tagged SARS-CoV2 S1-RBD (Sino …); assay: SPR, S1-RBD-mFc captured via anti-mouse-Fc antibody, 1:1 model
[5] = molecular target: T3, His-tagged SARS-CoV S1-RBD (Sino Biologicals) (SARS-CoV, UniProt P59594 306-527); assay: ELISA on coated His-tagged SARS-CoV S1-RBD [D00020 Figure 8A continued]
T3 construct: domain: S1-RBD; Bought reagent

[6] = molecular target: T1, Mouse-Fc-tagged SARS-CoV2 S1-RBD (Sino …); assay: ELISA on coated S1-RBD-mFc
[7] = molecular target: T1, Mouse-Fc-tagged SARS-CoV2 S1-RBD (Sino …); assay: competition ELISA: blocks S1-RBD-mFc binding to coated ACE-2 ECD; remark: listed apart in the source
[8] = molecular target: T1, Mouse-Fc-tagged SARS-CoV2 S1-RBD (Sino …); assay: ELISA on coated S1-RBD-mFc; remark: listed apart in the source

Binder | IC50 [1] [µg/mL] | EC50 [2] [µg/mL] | IC50 [3] [µg/mL] | Kd [4] [pM] | koff [4] [s⁻¹] | kon [4] [M⁻¹ s⁻¹] | binding result [5] | EC50 [6] [µg/mL] | IC50 [7] [µg/mL] | IC90 [7] [µg/mL] | EC50 [8] [µg/mL]
B1 | 0.0349 | 0.0166 | 0.0082 | 268 | 0.000263 | 982000 | no binding (tested: 1000 ng/ml) | 0.0112 | – | – | –
B2 | 0.0321 | 0.0196 | 0.0093 | 422 | 0.000327 | 445000 | no binding (tested: 1000 ng/ml) | 0.0082 | – | – | –
B3 | 0.0373 | 0.0085 | 0.0047 | 115 | 0.000243 | 2.12e+06 | no binding (tested: 1000 ng/ml) | 0.0081 | 0.028 | 18 | 0.007
B4 | 0.0433 | 0.0017 | 0.001 | 398 | 0.000283 | 714000 | no binding (tested: 1000 ng/ml) | 0.0082 | 0.0286 | 61.2 | 0.0077
B5 | 0.0423 | 0.0048 | 0.0036 | 770 | 0.000307 | 398000 | no binding (tested: 1000 ng/ml) | 0.007 | 0.0391 | 99.2 | 0.0064
B6 | 0.115 | 0.0265 | 0.0147 | – | – | – | no binding (tested: 1000 ng/ml) | 0.007 | – | – | –
B7 | – | – | – | – | – | – | – | – | 0.0525 | 0.913 | 0.0128
B8 | – | – | – | – | – | – | – | – | 0.0464 | 0.948 | 0.0119
B9 | 0.0434 | 0.0387 | 0.0141 | – | – | – | no binding (tested: 1000 ng/ml) | 0.007 | – | – | –
